The text below walks through data of PMC7039193 (The Journal of Cell Biology, 2019).

This test addresses GST-EVH1 domain of VASP (UniProt P50552 1-113). As to the kind of experiment: pull-down.

Chain of GST-EVH1 domain of VASP (P50552 1-113): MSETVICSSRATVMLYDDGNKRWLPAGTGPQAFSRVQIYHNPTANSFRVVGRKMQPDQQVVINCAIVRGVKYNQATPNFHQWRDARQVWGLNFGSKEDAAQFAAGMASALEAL

B1: endogenous TRIM9 (mouse embryonic cortex) (natural protein, mouse (endogenous in embryonic cortex), UniProt Q8C7M3 1-817, looked up)
chain: MEEMEEELKCPVCGSFYREPIILPCSHNLCQACARNILVQTPESESPQSRRASGSGVSDYDYLDLDKMSLYSEADSGYGSYGGFASAPTTPCQKSPNGVRVFPPAMPPPPTHLSPALAPVPRNSCITCPQCHRSLILDDRGLRGFPKNRVLEGVIDRYQQSKAAALKCQLCEKAPKEATVMCEQCDVFYCDPCRLRCHPPRGPLAKHRLVPPAQGRVSRRLSPRKVSTCTDHELENHSMYCVQCKMPVCYQCLEEGKHSSHEVKALGAMWKLHKSQLSQALNGLSDRAKEAKEFLVQLRTMVQQIQENSVEFEACLVAQCDALIDALNRRKAQLLARVNKEHEHKLKVVRDQISHCTVKLRQTTGLMEYCLEVIKENDPSGFLQISDALIRRVHLTEDQWGKGTLTPRMTTDFDLSLDNSPLLQSIHQLDFVQVKASSPVPATPILQLEECCTHNNSATLSWKQPPLSTVAADGYILELDDGSGGQFREVYVGKETMCTVDGLHFNSTYNARVKAFNKTGVSPYSKTLVLQTSEAAGAHETKPMKDTDSEEQTLPFPVPSERLPLRRMSPFSSTLNLQPSFPGRSYFDFRSSPHQLSLHSSLQSLNAPGCNFETQSASYSQLVDIKKLLAVAWFAFDPGSAHSDIIFSNDNLTVTCSSYDDRVVLGKTGFSKGVHYWELTIDRYDNHPDPAFGVARIDVMKDMMLGKDDKAWAMYVDNNRSWFMHNNSHTNRTEGGITKGATIGVLLDLNRKTLTFFVNNEQQGPIAFENVEGLFFPAVSLNRNVQVSLWAPGLRACSGCYFKVCPGAVKSPQAPAP
For the molecule B1, the “fold change of TRIM9 precipitated, Trim67-/- lysate against WT lysate” value is around 2 fold.
